US20150119254

Experiments:
[1] = tested on: T1, VEGF-165 (Homo sapiens), P15692-4; experiment: SPR; settings: for binding signal: 10 nM VEGF-165, 930 s
T1 sequence: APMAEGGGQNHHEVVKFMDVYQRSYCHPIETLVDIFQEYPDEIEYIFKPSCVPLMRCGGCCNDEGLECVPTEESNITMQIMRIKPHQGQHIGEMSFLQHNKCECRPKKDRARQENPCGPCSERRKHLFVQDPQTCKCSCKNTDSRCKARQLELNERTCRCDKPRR

[2] = target: T2, IFN-gamma (UniProt P01579); experiment: SPR; settings: Ds at n; for binding signal: 150 nM IFN-gamma, 930 s
T2 sequence: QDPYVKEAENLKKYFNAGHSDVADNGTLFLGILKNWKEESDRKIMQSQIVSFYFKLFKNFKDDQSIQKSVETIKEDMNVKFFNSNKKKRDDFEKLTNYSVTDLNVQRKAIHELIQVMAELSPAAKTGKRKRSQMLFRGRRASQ

[3] = Ds at n, PBS + 0.005% NP-40, 25 C

## GTCCGAAGGGGCNTGCAGTGANCCCGAATGGGTCCG [VGd1-2Ds-36]
[1]; Ds at n, Bound 0.02, 25 C
  Kd: 4.6 nM

## TCGGGTCATTTANTAATGTAGGTNTGGGCTAGGCNGCTAGTGGAT [IFd1-3Ds-45]
[2]; 205 mM NaCl, 25 C
  Kd: 15 nM

## GTAAACTGCGTCCGAAGGGGCNTGCAGTGANCCCGAATGGGTCCG [VGd1-2Ds-45]
[1]; Ds at n, 25 C
  Kd: 0.016 nM

## ATCAGTCCACATTGGACTTAGCCCAGCAAGACAATCTACGNTATGCCAGAAGTTGG [IF02Ds-57]
[2]
  binding signal: 0.03 bound ratio

## TGTCTAAGTANGGTGGGNTTGGCGGGGATGTCGGA [Ds-09-1-DsDsA]
[1]; Ds at n, retention 32%
  Kd: > 100 nM

## TGTCTAAGTANGGTGGGNTTGGCGGGGNTGTCGGA [Ds-09-1-DsDsDs]
[1]; Ds at n, PBS + 0.05% NP-40, 25 C, retention 92%
  Kd: 4 nM

## TCCACTCGGGTCATTTANTAATGTAGGTNTGGGCTAGGCNGCTAGTGGA [IFd1-3Ds-49]
[2]; 205 mM NaCl, 25 C
  Kd: 1.6 nM

## CCGGTAAACTGCGTCCGAAGGGGCNTGCAGTGANCCCGAATGGGTCCGG [VGd1-2Ds-49]
[1]; [3]
  Kd: 0.0046 nM

## TGTCTAAGTANTGTGGGNTTGGAGGGGNTGTCGGA [Ds-09-1-mDsDsDs]
[1]; Ds at n, retention 90%
  Kd: 50 nM

## CGGTAAACTGCGTCCGAAGGGGCATGCAGTGAACCCGAATGGGTCCG [VGd1-2A-47]
[1]; 25 C
  Kd: 0.2 nM

## ATCAGTCCACTCCTTCTGTCATNGGGCAGGCGCNTTTGGTGTAGNGTTTATCTTGG [IF07aDs-57]
[2]
  binding signal: 0.07 bound ratio

## TCGGGTCATTTANTAATGTAGGTNTGGGCTAGGCAGCTAGTGGAT [IFd1-DsDsA-45]
[2]; Bound 0.36
  Kd: > 200 nM

## TGTCTAAGTAAGGTGGGATTGGCGGGGATGTCGGA [Ds-09-1-AAA]
[1]; retention 28%
  Kd: > 100 nM

## TGTCTAAGTAAGGTGGGNTTGGCGGGGNTGTCGGA [Ds-09-1-ADsDs]
[1]; Ds at n, PBS + 0.05% NP-40, 25 C, retention 94%
  Kd: 1 nM

## ATCAGTCCACGAGATGGATGGTAGTGGCCGNACGGGGGGGNTGGAGANGCTGGCTG [VG08Ds-57]
[1]; Ds at n
  binding signal: 0.21 bound ratio

## ATCAGTCCACAAAGTGCTGGGTCCGNATGGCGGGGGGTTAGGCCTCTTTGGGGCGG [VG01Ds-57]
[1]; Ds at n
  binding signal: 0.2 bound ratio

## TCGGGTCATTTAATAATGTAGGTATGGGCTAGGCNGCTAGTGGAT [IFd1-AADs-45]
[2]; 205 mM NaCl, 25 C
  Kd: 113 nM

## ATCAGTCCACTCGGGTCGTTTANTAATGTAGGTNTGGGCTAGGCNGCTAGTGGATG [IF07bDs-57 (Table 14)]
[2]; 205 mM NaCl phosphate pH 7.4, 25 C
  Kd: 0.8 nM

## CGGTAAACTGCGTCCGAAGGGGCNTGCAGTGANCCCGAATGGGTCCG [VGd1-2Ds-47]
[1]; [3]
  Kd: 0.0046 nM

## GTAAACTGCGTCCGAAGGGGCNTGCAGTGANCCCGA [VGd1-2Ds-36b]
[1]; Ds at n, 25 C
  Kd: 0.017 nM

## TCGGGTCATTTAATAATGTAGGTNTGGGCTAGGCNGCTAGTGGAT [IFd1-A2Ds-45]
[2]; 205 mM NaCl, 25 C
  Kd: 20 nM

## TGACCTCGGGTCATTTANTAATGTAGGTNTGGGCTAGGCNGCTAGGTCA [IFd1-3Ds-49b]
[2]; 205 mM NaCl, 25 C
  Kd: 1.1 nM

## TCGGGTCATTTANTAATGTAGGTATGGGCTAGGCNGCTAGTGGAT [IFd1-DsADs-45]
[2]; 205 mM NaCl, 25 C
  Kd: 127 nM

## GTAAACTGCGTCCGAAGGGGCATGCAGTGANCCCGAATGGGTCCG [VGd1-ADs-45]
[1]; Ds at n, 25 C
  Kd: 0.037 nM

## ACTGCGTCCGAAGGGGCNTGCAGTGANCCCGAATGGGTCCG [VGd1-2Ds-41]
[1]; Ds at n, 25 C
  Kd: 0.069 nM

## ATCAGTCCACTCGGGTCGTTTANTAATGTAGGTNTGGGCTAGGCNGCTAGTGGATG [IF07bDs-57]
[2]; Bound 0.72 (Table 13), 25 C
  Kd: 2 nM

## GTAAACTGCGTCCGAAGGGGCNTGCAGTGAACCCGAATGGGTCCG [VGd1-DsA-45]
[1]; Ds at n, 25 C
  Kd: 0.094 nM

## ATCAGTCCACATCGAGCGTGAGGTCCGAAAGGCGACTCTTNTAACATCAAGTAATG [VG02aDs-57]
[1]; Ds at n
  binding signal: 0.15 bound ratio

## TCGGGTCGTTTANTAATGTAGGTNTGGGCTAGGCNGCTAGTGGAT [IF07bDs-45]
[2]; 205 mM NaCl, 25 C
  Kd: 20 nM

## TCAGTCCACGGTAAACTGAGTCCGAAGGGGCNTGCAGTGANCCCGAATGGGTCCGG [VG20Ds-57]
[1]; Ds at n, printed as uM, evidently pM, 25 C
  Kd: 0.0059 nM

## TTTTTGTAAACTGCGTCCGAAGGGGCNTGCAGTGANCCCGAATGGGTCCG [VGd1-2Ds-50]
[1]; Ds at n, 25 C
  Kd: 0.017 nM

## TGTCTAAGTANGGTGGGATTGGCGGGGNTGTCGGA [Ds-09-1-DsADs]
[1]; Ds at n, retention 33%
  Kd: > 100 nM

## GTAAACTGAGTCCGAAGGGGCNTGCAGTGANCCCGAATGGGTCCG [VG20Ds-45]
[1]; Ds at n, 25 C
  Kd: 0.022 nM

## ATCAGTCCACTAATCAGGAAGANGATAGGGTTTGTCTTNTGTTGCCACGCTGGGAG [IF04Ds-57]
[2]
  binding signal: 0.1 bound ratio

## ATCAGTCCACATACGCGGGGGTGTTGAAGGGTTAGTCGGANGTAGTGTGTACAGAG [VG02bDs-57]
[1]; Ds at n
  binding signal: 0.39 bound ratio

## GTAAACTGCGTCCGAAGGGGCNTGCAGTGANCCCGAATGGG [VGd1-2Ds-41b]
[1]; Ds at n, 25 C
  Kd: 0.06 nM

## ATCAGTCCACCTATGTGGGTTGGNTGGGGTGTATGTTNGTAGGGCTANGGAGGTGG [IF11Ds-57]
[2]
  binding signal: 0.66 bound ratio
